± gives the standard deviation of the averaged measurements.
B1: library; a variant is named by its letters at N, in order (parent)
chain: GCUGUCACCGAGAAACUGUGAAGUAUAUCUUAAACCUGGGCACUUAAAAGAUAUAUGGAGUUAGUAGUGCAACCUGCUCGGUCUGAUGAGUCCNNNNNNGGACGAAACAGC

How the values were obtained:
cyclic di-GMP [1] = variants of: B1; test: normalized RNA/DNA level without ligand (relative to sTRSVctl = 100) (log10 (% of sTRSVctl)); HEK293T; ligand: cyclic di-GMP (c-di-GMP-II aptamer); higher = less ribozyme self-cleavage, higher mRNA level; details: reporter: mCherry (pCS4076), ligand present: no
Outline: (§1)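 RNA level was computed as RNA reads over DNA reads divided by a spiked-in non-cleaving sequence or by the top sequences, then scaled and log-transformed. Scaling was ×100 with log10, the top group was 25 sequences, and the threshold was ≥100 DNA reads. The reads came from HEK293T cells transfected at 4 µg per 6-well well with ribozyme switch library plasmids (mCherry, or eGFP in some ligand experiments). Total RNA was extracted with EDTA 72 h after transfection, with any ligand added 1 h before it.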

cyclic di-GMP [2] = variants of: B1; test: normalized RNA/DNA level with ligand (relative to sTRSVctl = 100) (log10 (% of sTRSVctl)); HEK293T; ligand: cyclic di-GMP (c-di-GMP-II aptamer); ligand concentration (+) RNA-Seq: 1 mM; higher = less ribozyme self-cleavage, higher mRNA level; details: reporter: mCherry (pCS4076), ligand present: yes
Outline: as §1

| Variant | normalized RNA/DNA level without ligand (log10) (cyclic di-GMP [1]) | normalized RNA/DNA level with ligand (log10) (cyclic di-GMP [2]) |
| --- | --- | --- |
| CUCAAG | 1.67 ± 0.022 | 1.84 ± 0.033 |
| CUCAAA | 1.38 ± 0.12 | 1.59 ± 0.076 |
| CUCAAC | 1.66 ± 0.033 | 1.8 ± 0.1 |
| CUCAAU | 1.55 ± 0.057 | 1.71 ± 0.082 |
| GUAGAC | 1.595 ± 0.0029 | 1.79 ± 0.13 |
| AUAGCU | 1.68 ± 0.024 | 1.78 ± 0.069 |
| AUAGCA | 1.71 ± 0.043 | 1.81 ± 0.15 |
| AUAGCC | 1.76 ± 0.022 | 1.87 ± 0.095 |
| AUAGCG | 1.73 ± 0.02 | 1.85 ± 0.15 |
| GUAGUG | 1.744 ± 0.0031 | 1.81 ± 0.12 |
| GUAGUU | 1.61 ± 0.043 | 1.75 ± 0.061 |
| GUAGUC | 1.37 ± 0.12 | 1.55 ± 0.054 |
| CUAUGU | 1.748 ± 0.012 | 1.84 ± 0.088 |
| CUAUGC | 1.75 ± 0.042 | 1.86 ± 0.12 |
| CUAUGA | 1.6 ± 0.059 | 1.76 ± 0.058 |
| CUAUGG | 1.75 ± 0.049 | 1.87 ± 0.09 |
| CUACAU | 1.57 ± 0.047 | 1.72 ± 0.13 |
| CUACAG | 1.73 ± 0.023 | 1.87 ± 0.035 |
| AGUUGU | 1.66 ± 0.048 | 1.85 ± 0.11 |
| AUACCC | 1.75 ± 0.043 | 1.89 ± 0.086 |
| AUACCU | 1.7 ± 0.054 | 1.85 ± 0.046 |
| AUACCA | 1.663 ± 0.0032 | 1.79 ± 0.11 |
| GUAAAC | 1.57 ± 0.017 | 1.74 ± 0.038 |
| AUAAAC | 1.647 ± 0.0018 | 1.8 ± 0.13 |

| Variant | normalized RNA/DNA level without ligand (log10) (cyclic di-GMP [1]) | normalized RNA/DNA level with ligand (log10) (cyclic di-GMP [2]) |
| --- | --- | --- |
| AUAAAA | 1.53 ± 0.056 | 1.67 ± 0.073 |
| AUAAAU | 1.59 ± 0.005 | 1.8 ± 0.11 |
| CUAAUC | 1.712 ± 0.014 | 1.81 ± 0.087 |
| AUACGG | 1.58 ± 0.093 | 1.74 ± 0.056 |
| AUACGC | 1.658 ± 0.014 | 1.81 ± 0.14 |
| AUACGU | 1.67 ± 0.043 | 1.79 ± 0.059 |
| UUACCU | 1.74 ± 0.022 | 1.86 ± 0.069 |
| UUACCG | 1.8 ± 0.035 | 1.88 ± 0.11 |
| CUAGGG | 1.62 ± 0.022 | 1.78 ± 0.12 |
| CUAGGC | 1.74 ± 0.03 | 1.89 ± 0.11 |
| CUAGGU | 1.7 ± 0.026 | 1.85 ± 0.14 |
| CUAGGA | 1.54 ± 0.055 | 1.72 ± 0.099 |
| AUAUAU | 1.678 ± 0.0055 | 1.83 ± 0.11 |
| AUAUAC | 1.68 ± 0.019 | 1.82 ± 0.12 |
| AUAUAA | 1.5 ± 0.042 | 1.67 ± 0.13 |
| AUAGUC | 1.675 ± 0.0068 | 1.83 ± 0.088 |
| AUAGUG | 1.56 ± 0.068 | 1.71 ± 0.083 |
| GUAACU | 1.7 ± 0.055 | 1.82 ± 0.13 |
| GUAACA | 1.68 ± 0.035 | 1.81 ± 0.11 |
| GUAACC | 1.77 ± 0.084 | 1.87 ± 0.092 |
| CUAAGG | 1.748 ± 0.0049 | 1.8 ± 0.064 |
| CUAAGA | 1.53 ± 0.068 | 1.72 ± 0.079 |
| CUAAGC | 1.75 ± 0.039 | 1.87 ± 0.077 |
| CUAAGU | 1.75 ± 0.063 | 1.84 ± 0.099 |

| Variant | normalized RNA/DNA level without ligand (log10) (cyclic di-GMP [1]) | normalized RNA/DNA level with ligand (log10) (cyclic di-GMP [2]) |
| --- | --- | --- |
| AUCACU | 1.74 ± 0.057 | 1.88 ± 0.12 |
| AUCACC | 1.77 ± 0.035 | 1.87 ± 0.068 |
| AUCACG | 1.64 ± 0.012 | 1.78 ± 0.13 |
| AUCACA | 1.64 ± 0.069 | 1.8 ± 0.062 |
| UUAUCG | 1.783 ± 0.014 | 1.86 ± 0.14 |
| UUAUCU | 1.704 ± 0.0044 | 1.85 ± 0.083 |
| UUAUCA | 1.76 ± 0.11 | 1.91 ± 0.14 |
| GUAUAU | 1.6 ± 0.031 | 1.75 ± 0.11 |
| GUAUAA | 1.501 ± 0.012 | 1.69 ± 0.088 |
| GUAUAC | 1.661 ± 0.0097 | 1.81 ± 0.084 |
| CUAAAG | 1.64 ± 0.033 | 1.79 ± 0.055 |
| CUAAAC | 1.7 ± 0.018 | 1.79 ± 0.095 |
| GUAUCC | 1.73 ± 0.028 | 1.86 ± 0.13 |
| GUAUCU | 1.68 ± 0.038 | 1.82 ± 0.084 |
| GUAUCG | 1.63 ± 0.043 | 1.81 ± 0.098 |
| UGUUGU | 1.72 ± 0.015 | 1.9 ± 0.061 |
| UUAAAA | 1.645 ± 0.0029 | 1.8 ± 0.066 |
| UUAAAC | 1.7 ± 0.057 | 1.8 ± 0.097 |
| UUAAAG | 1.65 ± 0.023 | 1.81 ± 0.11 |
| CUAGUA | 1.56 ± 0.046 | 1.7 ± 0.04 |
| CUAGUC | 1.75 ± 0.039 | 1.83 ± 0.055 |
| CUAGUG | 1.529 ± 0.0021 | 1.69 ± 0.12 |
| CUAGUU | 1.739 ± 0.0023 | 1.89 ± 0.06 |
| UGUUUG | 1.77 ± 0.014 | 1.91 ± 0.12 |

| Variant | normalized RNA/DNA level without ligand (log10) (cyclic di-GMP [1]) | normalized RNA/DNA level with ligand (log10) (cyclic di-GMP [2]) |
| --- | --- | --- |
| UGUUUU | 1.71 ± 0.032 | 1.86 ± 0.11 |
| UGUUUA | 1.744 ± 0.0073 | 1.89 ± 0.072 |
| UGUUUC | 1.812 ± 0.0031 | 1.92 ± 0.08 |
| UUAGCG | 1.79 ± 0.032 | 1.86 ± 0.11 |
| UUAGCC | 1.76 ± 0.082 | 1.83 ± 0.13 |
| UUAGCU | 1.775 ± 0.0051 | 1.89 ± 0.062 |
| UUAGCA | 1.72 ± 0.052 | 1.83 ± 0.12 |
| GUAUUA | 1.578 ± 0.0077 | 1.75 ± 0.1 |
| GUAUUC | 1.48 ± 0.036 | 1.7 ± 0.11 |
| UUACUG | 1.67 ± 0.016 | 1.84 ± 0.096 |
| UUACUC | 1.747 ± 0.0026 | 1.84 ± 0.093 |
| UUACUU | 1.68 ± 0.022 | 1.83 ± 0.11 |
| UUAAGC | 1.734 ± 0.0092 | 1.85 ± 0.078 |
| UUAAGU | 1.71 ± 0.02 | 1.82 ± 0.1 |
| UUAAGG | 1.77 ± 0.047 | 1.9 ± 0.13 |
| UUAUAA | 1.6409 ± 0.0011 | 1.81 ± 0.13 |
| UUAUAG | 1.71 ± 0.046 | 1.8 ± 0.11 |
| UUAUAC | 1.73 ± 0.018 | 1.86 ± 0.053 |
| AUACAC | 1.71 ± 0.02 | 1.82 ± 0.081 |
| AUACAG | 1.59 ± 0.089 | 1.77 ± 0.04 |
| CUAUCG | 1.79 ± 0.047 | 1.88 ± 0.12 |
| CUAUCA | 1.538 ± 0.014 | 1.74 ± 0.038 |
| GUACCG | 1.77 ± 0.037 | 1.84 ± 0.069 |
| GUACCC | 1.75 ± 0.058 | 1.88 ± 0.097 |

| Variant | normalized RNA/DNA level without ligand (log10) (cyclic di-GMP [1]) | normalized RNA/DNA level with ligand (log10) (cyclic di-GMP [2]) |
| --- | --- | --- |
| GUACCA | 1.68 ± 0.044 | 1.81 ± 0.13 |
| GUACCU | 1.73 ± 0.029 | 1.83 ± 0.13 |
| AGUUUU | 1.79 ± 0.033 | 1.89 ± 0.13 |
| AGUUUG | 1.65 ± 0.088 | 1.77 ± 0.096 |
| AGUUUC | 1.75 ± 0.025 | 1.85 ± 0.13 |
| GUACAU | 1.61 ± 0.075 | 1.79 ± 0.074 |
| GUACAG | 1.65 ± 0.067 | 1.78 ± 0.12 |
| GUACAC | 1.67 ± 0.03 | 1.79 ± 0.1 |
| UUAUUC | 1.76 ± 0.073 | 1.88 ± 0.14 |
| UUAUUG | 1.7 ± 0.026 | 1.83 ± 0.16 |
| UUAUUU | 1.75 ± 0.06 | 1.86 ± 0.17 |
| UUAUUA | 1.68 ± 0.069 | 1.8 ± 0.13 |
| UUAUGC | 1.73 ± 0.012 | 1.81 ± 0.1 |
| UUAUGU | 1.7 ± 0.024 | 1.84 ± 0.11 |
| GUAGCG | 1.81 ± 0.022 | 1.88 ± 0.059 |
| GUAGCU | 1.74 ± 0.065 | 1.83 ± 0.1 |
| GUAGCC | 1.69 ± 0.071 | 1.8 ± 0.11 |
| GUAUGG | 1.53 ± 0.16 | 1.7 ± 0.042 |
| GUAUGU | 1.6045 ± 0.00047 | 1.77 ± 0.087 |
| GUAUGC | 1.56 ± 0.065 | 1.75 ± 0.084 |

Source: the supplement of paper PMC6757056
